Data from US20180371090A1.

Legend:
[1] = molecular target: His-tagged human FcγRIIA (R131) (human) (UniProt P12318); assay: SPR steady-state, His-captured receptor, 25 C
[2] = molecular target: His-tagged human FcγRIIA (H131) (human) (UniProt P12318); assay: SPR steady-state, His-captured receptor, 25 C
[3] = molecular target: His-tagged cynomolgus FcγRIIIA (cynomolgus) (UniProt Q8SPW2); assay: SPR steady-state, His-captured receptor, 25 C
[4] = molecular target: His-tagged human FcγRIIB (human) (UniProt P31994); assay: SPR steady-state, His-captured receptor, 25 C
Sequence of His-tagged human FcγRIIB (human) (P31994 46-217 limits assumed): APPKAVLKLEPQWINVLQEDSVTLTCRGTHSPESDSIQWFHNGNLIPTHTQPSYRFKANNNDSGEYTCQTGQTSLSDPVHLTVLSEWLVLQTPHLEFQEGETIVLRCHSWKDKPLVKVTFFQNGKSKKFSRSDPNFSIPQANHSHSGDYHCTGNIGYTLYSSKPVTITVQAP

[5] = molecular target: His-tagged cynomolgus FcγRIIB (cynomolgus); assay: SPR steady-state, His-captured receptor, 25 C
[6] = molecular target: His-tagged cynomolgus FcγRIIA (cynomolgus); assay: SPR steady-state, His-captured receptor, 25 C
[7] = molecular target: FcγRI and FcγRIIA on U937 cells; assay: flow cytometry on U937 cells (FcγRI and FcγRIIA), FITC goat anti-human Fab secondary, MFI
[8] = molecular target: human CD3 on Jurkat cells (human) (UniProt P07766); assay: flow cytometry on Jurkat cells, FITC anti-human IgG secondary

Sequence of His-tagged human FcγRIIA (R131) (human) (P12318 36-218 H167R limits assumed): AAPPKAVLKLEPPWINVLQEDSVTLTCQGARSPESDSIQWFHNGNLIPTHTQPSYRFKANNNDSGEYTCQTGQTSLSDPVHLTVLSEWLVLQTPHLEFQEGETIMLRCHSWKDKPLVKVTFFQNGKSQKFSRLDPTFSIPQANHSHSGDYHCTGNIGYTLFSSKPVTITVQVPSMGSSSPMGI
Sequence of His-tagged human FcγRIIA (H131) (human) (P12318 36-218 limits assumed): as the sequence (P12318 36-218 H167R limits assumed) above, with R132H counted along it
Sequence of His-tagged cynomolgus FcγRIIIA (cynomolgus) (Q8SPW2 17-208 limits assumed): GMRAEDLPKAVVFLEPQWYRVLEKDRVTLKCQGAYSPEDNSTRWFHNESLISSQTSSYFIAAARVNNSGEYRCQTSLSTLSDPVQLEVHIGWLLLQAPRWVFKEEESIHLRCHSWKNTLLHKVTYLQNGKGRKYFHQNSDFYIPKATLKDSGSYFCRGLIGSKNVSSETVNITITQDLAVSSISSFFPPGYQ

| Binder | Kd [1] [µM] | Kd [2] [µM] | Kd [3] [µM] | Kd [4] [µM] | Kd [5] [µM] | Kd [6] [µM] | EC50 [7] [µM] | Geom. Mean:FITC-A [8] |
| --- | --- | --- | --- | --- | --- | --- | --- | --- |
| Antibody 4, anti-CD3 x anti-CD20 bispecific antibody with chimeric IgG4 constant regions (bispecific antibody, part only; not given: variable domains of both arms, not shown: another chain or arm of the molecule) constant 1: ASTKGPSVFPLAPCSRSTSESTAALGCLVKDYFPEPVTVSWNSGALTSGVHTFPAVLQSSGLYSLSSVVTVPSSSLGTKTYTCNVDHKPSNTKVDKRVESKYGPPCPPCPAPPVAGPSVFLFPPKPKDTLMISRTPEVTCVVVDVSQEDPEVQFNWYVDGVEVHNAKTKPREEQFNSTYRVVSVLTVLHQDWLNGKEYKCKVSNKGLPSSIEKTISKAKGQPREPQVYTLPPSQEEMTKNQVSLTCLVKGFYPSDIAVEWESNGQPENNYKTTPPVLDSDGSFFLYSRLTVDKSRWQEGNVFSCSVMHEALHNHYTQKSLSLSLGK constant 2: ASTKGPSVFPLAPCSRSTSESTAALGCLVKDYFPEPVTVSWNSGALTSGVHTFPAVLQSSGLYSLSSVVTVPSSSLGTKTYTCNVDHKPSNTKVDKRVESKYGPPCPPCPAPPVAGPSVFLFPPKPKDTLMISRTPEVTCVVVDVSQEDPEVQFNWYVDGVEVHNAKTKPREEQFNSTYRVVSVLTVLHQDWLNGKEYKCKVSNKGLPSSIEKTISKAKGQPREPQVYTLPPSQEEMTKNQVSLTCLVKGFYPSDIAVEWESNGQPENNYKTTPPVLDSDGSFFLYSRLTVDKSRWQEGNVFSCSVMHEALHNRFTQKSLSLSLGK | 19.3 | 12 | 66.3 | 123 | 13.9 | 23.1 | – | – |
| Antibody 1, sIgG4-anti-CD3_L2K (antibody, part only; not given: L2K light chain, part only) heavy: DVQLVQSGAEVKKPGASVKVSCKASGYTFTRYTMHWVRQAPGQGLEWIGYINPSRGYTNYADSVKGRFTITTDKSTSTAYMELSSLRSEDTATYYCARYYDDHYCLDYWGQGTTVTVSSASTKGPSVFPLAPCSRSTSESTAALGCLVKDYFPEPVTVSWNSGALTSGVHTFPAVLQSSGLYSLSSVVTVPSSSLGTKTYTCNVDHKPSNTKVDKRVESKYGPPCPPCPAPPVAGPSVFLFPPKPKDTLMISRTPEVTCVVVDVSQEDPEVQFNWYVDGVEVHNAKTKPREEQFNSTYRVVSVLTVLHQDWLNGKEYKCKVSNKGLPSSIEKTISKAKGQPREPQVYTLPPSQEEMTKNQVSLTCLVKGFYPSDIAVEWESNGQPENNYKTTPPVLDSDGSFFLYSRLTVDKSRWQEGNVFSCSVMHEALHNHYTQKSLSLSLGK | – | – | – | – | – | – | 0.0335 | 1390 |
